This note sets out measurements from article PMC6366900, “Pat1 promotes processing body assembly by enhancing the phase separation of the DEAD-box ATPase Dhh1 and RNA” (eLife, 2019).

In the test the target is T1, Dhh1 (full-length) (S. cerevisiae, UniProt P39517 1-506).
T1 construct: Dhh1, DEAD-box ATPase, S. cerevisiae, full-length; also called DEAD-box ATPase Dhh1; source: purified as described previously (Mugler et al., 2016)
T1 sequence (looked up): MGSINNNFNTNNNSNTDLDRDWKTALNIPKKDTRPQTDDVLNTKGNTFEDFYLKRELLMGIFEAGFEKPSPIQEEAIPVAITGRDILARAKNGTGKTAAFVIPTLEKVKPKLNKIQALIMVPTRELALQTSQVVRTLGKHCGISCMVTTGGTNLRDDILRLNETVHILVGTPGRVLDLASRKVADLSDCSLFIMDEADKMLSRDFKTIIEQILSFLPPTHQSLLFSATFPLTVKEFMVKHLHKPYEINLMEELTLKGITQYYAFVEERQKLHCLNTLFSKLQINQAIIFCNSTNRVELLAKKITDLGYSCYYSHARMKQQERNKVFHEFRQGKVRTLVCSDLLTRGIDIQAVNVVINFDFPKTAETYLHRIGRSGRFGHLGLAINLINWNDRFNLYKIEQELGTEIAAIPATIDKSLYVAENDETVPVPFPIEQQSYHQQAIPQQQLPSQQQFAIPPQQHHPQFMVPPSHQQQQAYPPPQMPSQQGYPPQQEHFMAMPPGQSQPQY
Briefly: pull-down; GST-Pat1-NC and mutants bound to GST-slurry as bait, Dhh1 as prey; 1 hr at 4°C; wash buffer 300 mM NaCl, 10 mM Tris pH 7.5, 0.05 % NP40, washed five times; 12% acrylamide gel, Coomassie. As to conditions: both partners purified.

B1: GST-Pat1-NC (domain or fragment, S. cerevisiae)
chain: GLENSGNARDGPLDFEESYKGYGEHELEENDYLNDETFGDNVQVGTDFDFGNPHSSGSSGNAIGGNGVGATARSYGGSGGSGGSGGSSSYAFNNGNGATNLNKSGGKKFILELIETVYEEILDLEANLRNGQQTDSTAMWEALHIDDSSYDVNPFISMLSFDKGIKIMPRIFNFLDKQQKLKILQKIFNELSHLQIIILSSYKTTPKPTLTQLKKVDLFQMIILKIIVSFLSNNSNFIEIMGLLLQLIRNNNVSFLTTSKIGLNLITILISRAALIKQDSSRSNILSSPEISTWNEIYDKLFTSLESKIQLIFPPREYNDHIMRLQNDKFMDEAYIWQFLASLALSGKLNHQRIIIDEVRDEIFATINEAETLQKKEKELSVLPQRSQELDTELKSIIYNKEKLYQDLNLFLNVMGLVY
notes: Pat1, S. cerevisiae, N-terminal fragment (Pat1-N), amino acids 5-79; linker, printed as (GGS)4; Cloned into a pETM-CN vector; The His and GST tags were cleaved unless required for pull-down assays; In the droplet assay (functional rows) the protein was Pat1-NC-GFP, not the GST form; also called recombinant Pat1-NC protein; source: E. coli BL21 DE3, purified (Ni2+ sepharose, Superdex 200); not …
With B1, the binding result is given as “binds”.

B2: GST-Pat1-NC^EE (domain or fragment, S. cerevisiae)
chain: GLENSGNARDGPLDFEESYKGYGEHELEENDYLNDETFGDNVQVGTDFDFGNPHSSGSSGNAIGGNGVGATARSYGGSGGSGGSGGSEEYAFNNGNGATNLNKSGGKKFILELIETVYEEILDLEANLRNGQQTDSTAMWEALHIDDSSYDVNPFISMLSFDKGIKIMPRIFNFLDKQQKLKILQKIFNELSHLQIIILSSYKTTPKPTLTQLKKVDLFQMIILKIIVSFLSNNSNFIEIMGLLLQLIRNNNVSFLTTSKIGLNLITILISRAALIKQDSSRSNILSSPEISTWNEIYDKLFTSLESKIQLIFPPREYNDHIMRLQNDKFMDEAYIWQFLASLALSGKLNHQRIIIDEVRDEIFATINEAETLQKKEKELSVLPQRSQELDTELKSIIYNKEKLYQDLNLFLNVMGLVY
notes: Pat1, S. cerevisiae, N-terminal fragment (Pat1-N), amino acids 5-79; linker, printed as (GGS)4; Mutant of m1; also called Pat1^EE; phospho-mimetic mutant; source: E. coli BL21 DE3, purified (Ni2+ sepharose, Superdex 200); not shown: GST, N-terminal, kept
For B2, the binding result is listed as “binds”.
